The text below walks through data of PMC11139864.

The target of test [1] is Thogoto virus (THOV) polymerase, full-length heterotrimer of PB2, PB1 and PA (Thogoto virus (isolate SiAr 126)) (UniProt Q9YNA4). The test is described as follows: cryo-EM structure; replicative elongation sample: 3.2 uM THOVPol, 30 °C for 6 h with 1.6 uM 3' vRNA, 1.6 uM 5' vRNA, 160 uM primer pppApG, 1.6 mM each ATP and CTP; 25 mM Tris-HCl pH 7.5, 300 mM NaCl, 2 mM MnCl2, 8 mM TCEP, 1% glycerol; asymmetric dimer of two heterotrimers (THOVPol-ELR with THOVPol-RER) beside a monomeric form.

Test [2] shares this target. The test can be described thus: cryo-EM structure; transcriptional elongation sample: 3.2 uM THOVPol, 30 °C for 6 h with 2.5 uM 3' vRNA, 2.5 uM 5' vRNA, 160 uM capped primer m7GpppAmG, 1.6 mM each ATP and CTP; 25 mM Tris-HCl pH 7.5, 300 mM NaCl, 2 mM MnCl2, 8 mM TCEP, 1% glycerol; asymmetric dimer of two heterotrimers (THOVPol-EL with THOVPol-RE) beside monomeric forms.

Test [3] shares this target.

As to “Thogoto virus (THOV) polymerase, full-length heterotrimer of PB2, PB1 and PA (from UniProt Q9YNA4 1-769; Q9YNA4 1-769; Q9YNA4 1-769) (complex)”, the stoichiometry N (as a rule, a count of units in the complex or per binding partner) in test [1] was determined as 2. Moreover, in test [2], the stoichiometry N came to 2. In addition, in test [3], the reduction of mRNA and cRNA levels in the mini-replicon assay (RT-qPCR) with PB2-HA D547A/F549A (dimer interface 1) is more than 100 fold; the reduction of mRNA and cRNA levels in the mini-replicon assay (RT-qPCR) with PB2-HA F134A/W138A (dimer interface 2) was more than 100 fold; the reduction of mRNA and cRNA levels in the mini-replicon assay (RT-qPCR) with PB2-HA Q295A/D547A/I653A (dimer interfaces 1 and 3) was more than 100 fold.
